For one substance, Kd and koff results are on record in article PMC12239813.

For this assay, the target named is human FLT3 receptor (human) (UniProt P36888). Kind of assay: SPR. Background: SPR reads the build-up and loss of mass on a sensor chip optically.
Chain of UniProt P36888 (P36888 27-993): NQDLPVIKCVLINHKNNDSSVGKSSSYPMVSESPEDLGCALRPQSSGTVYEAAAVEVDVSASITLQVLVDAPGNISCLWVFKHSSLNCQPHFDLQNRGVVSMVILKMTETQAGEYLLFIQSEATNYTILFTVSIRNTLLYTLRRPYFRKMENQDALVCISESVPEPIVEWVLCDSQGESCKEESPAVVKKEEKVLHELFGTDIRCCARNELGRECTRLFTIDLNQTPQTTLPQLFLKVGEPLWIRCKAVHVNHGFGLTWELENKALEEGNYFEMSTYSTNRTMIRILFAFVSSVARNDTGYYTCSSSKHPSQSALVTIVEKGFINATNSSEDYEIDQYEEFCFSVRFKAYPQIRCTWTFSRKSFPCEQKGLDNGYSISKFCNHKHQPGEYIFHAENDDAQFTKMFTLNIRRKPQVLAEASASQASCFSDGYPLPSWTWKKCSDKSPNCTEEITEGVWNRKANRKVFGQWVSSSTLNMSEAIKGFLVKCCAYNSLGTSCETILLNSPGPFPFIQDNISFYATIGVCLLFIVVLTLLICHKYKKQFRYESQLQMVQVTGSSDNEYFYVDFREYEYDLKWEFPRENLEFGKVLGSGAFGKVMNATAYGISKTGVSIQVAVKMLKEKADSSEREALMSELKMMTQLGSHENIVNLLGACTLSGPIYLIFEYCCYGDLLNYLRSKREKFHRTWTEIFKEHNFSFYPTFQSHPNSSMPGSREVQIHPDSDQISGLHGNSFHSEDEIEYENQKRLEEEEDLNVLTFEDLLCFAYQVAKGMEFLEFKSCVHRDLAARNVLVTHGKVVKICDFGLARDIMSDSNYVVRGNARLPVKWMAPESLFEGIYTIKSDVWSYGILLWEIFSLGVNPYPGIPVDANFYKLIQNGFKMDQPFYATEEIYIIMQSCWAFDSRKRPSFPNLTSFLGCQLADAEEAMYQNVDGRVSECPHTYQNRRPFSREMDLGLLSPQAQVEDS

What is called Kd is the constant that tells how readily two partners part at equilibrium. A high value points to a looser complex. What is called koff is a measure of how fast the partners let go of each other. Lower therefore signals slow dissociation. “human FLT3L protein (from UniProt P49771 27-184) (ligand)” had a dissociation constant Kd of 22.3 nM and a koff of 0.812 s⁻¹.
